Measurements published in the supplement of paper PMC7877785.
± gives the uncertainty stated by the source.

Test: self-splicing fitness, log relative to wild type (ln ratio); higher = more splicing; Tetrahymena group I intron in knt gene, E. coli kanamycin selection, DiMSum; sequences stand for … in CUCUCU…GGAGGGAAAAGUUAUCAGGCAUGCACCUGGUAGCUAGUCUUUAAACCAAUAGAUUGCAUCGGUUUAAAAGGCAAGACCGUCAAAUUGCGGGAAAGGGGUCAACAGCCGUUCAGUACCAAGUCUCAGGGGAAACUUUGAGAUGGCCUUGCAAAGGGUAUGGUAAUAAGCUGACGGACAUGGUCCUAACCACGCAGCCAAGUCCUAAGUCAACAGAUCUUCUGUUGAUAUGGAUGCAGUUCACAGACUAAAUGUCGGUCGGGGAAGAUGUAUUCUUCUCAUAAGAUAUAGUCGGACCUCUCCUUAAUGGGAGCUAGCGGAUGAAGUGAUGCAACACUGGAGCCGCUGGGAACUAAUUUGUAUGCGAAAGUAUAUUGAUUAGUUUUGGAGUACUCGUGGUCG
Procedure, shortened: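 DiMSum derived fitness as the error-weighted combination of fold changes across replicates, kanamycin versus no kanamycin, normalised to wild type. E. coli BL21(DE3) held the library, which randomised all eight P1ex-region intron nucleotides within the knt kanamycin-resistance gene on pET-22b(+). Six replicate transformations grew overnight at 37°C or 30°C on LB agar with or without 25 μg/mL kanamycin, also containing 100 μg/mL carbenicillin, 50 μM IPTG and 0.2% rhamnose, and pooled colonies were amplicon-sequenced on an Illumina HiSeq 2500.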

Sequence | self-splicing fitness (ln) (30 °C) | self-splicing fitness (ln) (37 °C)
CGAUAGCAAUAUUACGAUGC | -4.1 ± 0.21 | -1.81 ± 0.15
CGAUAGCAAUAUUACGCCCA | -1.46 ± 0.28 | 0.585 ± 0.16
CGAUAGCAAUAUUACGCCGC | -3.37 ± 0.37 | -1.3 ± 0.47
CGAUAGCAAUAUUACGCGUU | -3.13 ± 0.24 | -2.51 ± 0.22
CGAUAGCAAUAUUACGGACG | -1 ± 0.085 | -0.734 ± 0.11
CGAUAGCAAUAUUACGGAGA | -3.98 ± 0.42 | -2.4 ± 0.29
CGAUAGCAAUAUUACGGCAG | -0.958 ± 0.087 | -0.344 ± 0.12
CGAUAGCAAUAUUACGGGAC | -4.19 ± 0.36 | -2.42 ± 0.27
CGAUAGCAAUAUUACGGGUA | -3.87 ± 0.4 | -2.64 ± 0.2
CGAUAGCAAUAUUACGGUGC | -3.57 ± 0.3 | -2.23 ± 0.24
CGAUAGCAAUAUUACGUAGA | -3.31 ± 0.17 | -1.3 ± 0.13
CGAUAGCAAUAUUACGUAUU | -3.53 ± 0.25 | -2.61 ± 0.24
CGAUAGCAAUAUUACGUGCG | -2.23 ± 0.089 | -1.04 ± 0.1
CGCAAGCAAUAUUACGACAC | -2.89 ± 0.29 | -0.474 ± 0.22
CGCAAGCAAUAUUACGACUG | -0.662 ± 0.097 | -0.47 ± 0.12
CGCAAGCAAUAUUACGAGCC | -1.07 ± 0.095 | -0.349 ± 0.12
CGCAAGCAAUAUUACGAUAG | -0.276 ± 0.066 | 0.36 ± 0.092
CGCAAGCAAUAUUACGAUAU | -2.7 ± 0.14 | -1.91 ± 0.13
CGCAAGCAAUAUUACGCCAA | -2.12 ± 0.27 | -3.03 ± 0.35
CGCAAGCAAUAUUACGCGAU | -3.15 ± 0.22 | -3.83 ± 0.42
CGCAAGCAAUAUUACGCGUU | -3.9 ± 0.15 | -2.86 ± 0.15
CGCAAGCAAUAUUACGCUGC | -2.59 ± 0.33 | -2.41 ± 0.3
CGCAAGCAAUAUUACGCUGU | -3.81 ± 0.24 | -1.48 ± 0.16

Sequence | self-splicing fitness (ln) (30 °C) | self-splicing fitness (ln) (37 °C)
CGCAAGCAAUAUUACGGCCC | -1.17 ± 0.24 | -1.23 ± 0.26
CGCAAGCAAUAUUACGGCUA | -1.15 ± 0.063 | -0.556 ± 0.076
CGCAAGCAAUAUUACGGGAC | -3.18 ± 0.31 | -2.52 ± 0.29
CGCAAGCAAUAUUACGGGCC | -1.55 ± 0.12 | -1.02 ± 0.17
CGCAAGCAAUAUUACGGGGC | -3.65 ± 0.17 | -2.6 ± 0.15
CGCAAGCAAUAUUACGGGGG | -3.39 ± 0.18 | -1.12 ± 0.13
CGCAAGCAAUAUUACGGUCG | -2.32 ± 0.11 | -0.33 ± 0.1
CGCAAGCAAUAUUACGGUGC | -4.9 ± 0.29 | -2.53 ± 0.23
CGCAAGCAAUAUUACGUAAU | -3.89 ± 0.2 | -2.14 ± 0.17
CGCAAGCAAUAUUACGUGAG | -2.69 ± 0.13 | -2.15 ± 0.13
CGCAAGCAAUAUUACGUGCA | -0.273 ± 0.064 | -0.135 ± 0.075
CGCAAGCAAUAUUACGUGUU | -3.48 ± 0.11 | -2.9 ± 0.14
CGCAAGCAAUAUUACGUUUC | -2.92 ± 0.16 | -2.21 ± 0.23
CGCCAGCAAUAUUACGAAAU | -4.66 ± 0.37 | -2.69 ± 0.24
CGCCAGCAAUAUUACGAACC | -2.23 ± 0.22 | -2.02 ± 0.43
CGCCAGCAAUAUUACGAAGA | -2.64 ± 0.36 | -2.2 ± 0.24
CGCCAGCAAUAUUACGACCU | -3.15 ± 0.36 | -2.15 ± 0.28
CGCCAGCAAUAUUACGAGCU | -3.06 ± 0.097 | -1.59 ± 0.094
CGCCAGCAAUAUUACGAUGC | -3.51 ± 0.38 | -1.75 ± 0.2
CGCCAGCAAUAUUACGAUGU | -2.9 ± 0.12 | -1.25 ± 0.1
CGCCAGCAAUAUUACGCCGA | -2.87 ± 0.23 | -1.65 ± 0.19
CGCCAGCAAUAUUACGCGAU | -3.87 ± 0.2 | -2.22 ± 0.17
CGCCAGCAAUAUUACGCGGA | -2.91 ± 0.2 | -1.99 ± 0.16
